Assay results taken from patent publication US20120039897A1 (PHILIPPS UNIVERSITAET MARBURG, published 2012).
Positions count from the first letter of the chain named. Blank lines part the entries; values can stand above or below the binder they belong to.

Tests used:
[1] = molecular target: amyloid β peptide (antigen of the EIA of Table 2); experiment: ELISA (EIA), amyloid β peptide immobilised; legend: (-) indicates no binding
Experimental: (§1) All transfectants that expressed immunoglobulin efficiently were tested in an ELISA based on binding to amyloid β peptide. Biosensor data is ranked on a qualitative affinity binding assessment of the antibody to the cys-dimer peptide as described below.
Aβ(1-40) monomer, Aβ(1-40) oligomer, Aβ(1-40 Cys) oligomer, and control plate using bovine serum albumin (Sigma) or Aprotinin (Sigma) were immobilized at 1 μg/ml in PBS (50 μl per well) on a Nunc Maxisorb 96-well plate overnight at 4° C. Wells were washed once with 350 μl Wash Buffer (1×PBS, 0.05% (v/v) Tween-20 (Sigma)). Wells were then blocked with Blocking Buffer (2% (w/v) Difco Skim milk (BD) in PBS, 50-150 μl per well) for 2 hours at room-temperature and washed once with 350 μl Wash Buffer.

[2] = molecular target: T1, Aβ(1-40 Cys) oligomer (Example 12A); experiment: Biacore, antibody captured on anti-human Ig chip, cys-dimer peptide injected; legend: (-) indicates no binding
T1 construct: also called Aβ(1-40 Cys) dimer; cys-dimer peptide
Experimental: as §1
(§2) An anti-human immunoglobulin biosensor chip was prepared using a human antibody capture kit (Biacore, Sweden) as per manufacturer's instructions at flow rate of 5 μl/min with a 6 minute contact time during […] immobilisation. Approximately 10000 resonance units were achieved on all channels.

[3] = molecular target: T2, Aβ(1-40) monomer (Example 12A); experiment: Biacore, antibody captured on anti-human Ig chip, peptide injected
T2 construct: Sigma peptide, HFIP treated, kept in DMSO
Experimental: as §2

[4] = molecular target: T1, Aβ(1-40 Cys) oligomer (Example 12A); experiment: as above
Experimental: as §2

Chain of amyloid β peptide (antigen of the EIA of Table 2) (peptide, as listed by the source): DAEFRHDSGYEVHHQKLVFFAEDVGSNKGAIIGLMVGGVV
T1 sequence (peptide, as listed by the source): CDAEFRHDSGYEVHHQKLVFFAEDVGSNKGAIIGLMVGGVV

binding result [2]: no binding (tested: peptide 20-50 µg/ml)
B1: recombinant Aβ(21-37) autoantibody 54/62 (antibody, V domains shown)
VH: EVQLVESGGGVVQPGGSLRLSCAASGFTFSSYWMSWVRQAPGKGLEWVASVKQDGSEKYYVDSVKGRFTISRDNAKNTLYLQMNSLRAEDTAVYYCARDGSSWYRDWFDPWGQGTLVTVS
VL: DIVLTQSPATLSLSPGERVTITCRASQSVNSYLAWYQQKPGQAPRLLIYGASTRATGIPDRFSGSGSGTDFTLTISRLEPEDFAVYYCQQYGSSQGTFGPGTKVDIKR
binding result [1]: no binding (tested: 100 µg/ml starting concentration)

binding result [2]: no binding (tested: peptide 20-50 µg/ml)
B2: recombinant Aβ(21-37) autoantibody 50/67 (antibody, V domains shown)
VH: EVQLVESGGGVVQPGGSLRLSCAASGFTFRSYWMHWVRQAPGKGLEWVASVKQDGSEKYYVDSVKGRVTISLDTSKNQFSLKLSSVTAADTAVYYCARDGSSWYRDWFDPWGQGTLVSVS
VL: B1 VL with V3Q, L4M, V19A, T20A, I21L, T22S, S52A, T53S, D60A
binding result [1]: no binding (tested: 100 µg/ml starting concentration)

binding result [2]: no binding (tested: peptide 20-50 µg/ml)
B3: recombinant Aβ(21-37) autoantibody 55/68 (antibody, V domains shown)
VH: EVQLVESGGGVVQPGGSLRLSCAASGITFRSYDMSWVRQAPGKGLEWVASVKQDGSEKYYVDSVKGRFTVSRDNAKNTLYLQMNSLRAEDTAVYYCARDAGRWADLAFDIWGQGTLVTVS
VL: B1 VL with V3Q, L4M, A9G, V19A, T20A, I21L, T22S, N30S, G50A, T53I
binding result [1]: no binding (tested: 100 µg/ml starting concentration)

binding result [2]: no binding (tested: peptide 20-50 µg/ml)
B4: recombinant Aβ(21-37) autoantibody 50/62 (antibody, V domains shown)
VH: B1 VH
VL: B1 VL with V3Q, L4M, V19A, T20A, I21L, T22S, S52A, T53S, D60A
binding result [1]: no binding (tested: 100 µg/ml starting concentration)

binding result [2]: no binding (tested: peptide 20-50 µg/ml)
B5: recombinant Aβ(21-37) autoantibody 54/68 (antibody, V domains shown)
VH: B3 VH
VL: B1 VL
binding result [1]: no binding (tested: 100 µg/ml starting concentration)

binding result [2]: no binding (tested: peptide 20-50 µg/ml)
B6: recombinant Aβ(21-37) autoantibody 50/68 (antibody, V domains shown)
VH: B3 VH
VL: B1 VL with V3Q, L4M, V19A, T20A, I21L, T22S, S52A, T53S, D60A
binding result [1]: no binding (tested: 100 µg/ml starting concentration)

binding result [3]: no binding | binding result [4]: no binding
B7: recombinant Aβ(21-37) autoantibody 47/56 (antibody, V domains shown)
VH: B1 VH with S30R, N74T, A75S, G100A
VL: B1 VL with D1E
binding result [1]: no binding (tested: 100 µg/ml starting concentration)

B8: recombinant Aβ(21-37) autoantibody 50/69 (antibody, V domains shown)
VH: B1 VH with S30R, S35H, F68V, S71T, R72A, N74R
VL: B1 VL with V3Q, L4M, V19A, T20A, I21L, T22S, S52A, T53S, D60A
binding result [1]: no binding (tested: 100 µg/ml starting concentration)

binding result [2]: no binding (tested: peptide 20-50 µg/ml)
B9: recombinant Aβ(21-37) autoantibody 55/69 (antibody, V domains shown)
VH: B1 VH with S30R, S35H, F68V, S71T, R72A, N74R
VL: B1 VL with V3Q, L4M, A9G, V19A, T20A, I21L, T22S, N30S, G50A, T53I
binding result [1]: no binding (tested: 100 µg/ml starting concentration)

binding result [2]: no binding (tested: peptide 20-50 µg/ml)
B10: recombinant Aβ(21-37) autoantibody 55/62 (antibody, V domains shown)
VH: B1 VH
VL: B1 VL with V3Q, L4M, A9G, V19A, T20A, I21L, T22S, N30S, G50A, T53I
binding result [1]: no binding (tested: 100 µg/ml starting concentration)

binding result [2]: no binding (tested: peptide 20-50 µg/ml)
B11: recombinant Aβ(21-37) autoantibody 51/62 (antibody, V domains shown)
VH: B1 VH
VL: B1 VL with D1E, A25E, S28G, V29I, N30R, S31N
binding result [1]: no binding (tested: 100 µg/ml starting concentration)
